Source: patent US20250320284A1 (AC IMMUNE, published 2025)
Residue numbers refer to the chain shown, from its start. One block for each binder: values may come before it.

Columns and labels:
[1] = biological target: T1, human ASC (apoptosis associated speck-like protein containing a caspase-recruitment domain) (human, UniProt Q9ULZ3 1-195); assay: ELISA, coated hASC;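 further: antibody binding to plate-coated recombinant human ASC, read as phosphatase substrate absorbance, EC50 from four-parameter variable-slope fit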
T1 construct: recombinant hASC in ELISA and SPR; endogenous ASC (cytoplasmic or specks) in Western blot and immunofluorescence; also called hASC; PYCARD

[2] = biological target: T1, human ASC (apoptosis associated …); assay: cell-based or functional assay
CARD domain of human ASC [3] = biological target: T2, CARD domain of human ASC (human, UniProt Q9ULZ3 107-195); assay: BLI binning on CARD, competitor 18F4C12-Ab1
T2 construct: biotinylated in BLI; also called hCARD; human CARD
T2 sequence: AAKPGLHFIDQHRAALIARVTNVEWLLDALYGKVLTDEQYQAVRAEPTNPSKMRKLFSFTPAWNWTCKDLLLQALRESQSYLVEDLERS

CARD domain of human ASC [4] = biological target: T2, CARD domain of human ASC; assay: BLI binning on CARD, competitor 2622E12F11-Ab1
CARD domain of human ASC [5] = biological target: T2, CARD domain of human ASC; assay: ELISA, coated hCARD
CARD domain of human ASC [6] = biological target: T2, CARD domain of human ASC; assay: BLI binning on CARD, competitor 2629E8D1-Ab1
[7] = biological target: T1, human ASC (apoptosis associated …); assay: SPR affinity mode, mAb captured;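 further: Single-cycle SPR kinetics with mAbs captured on goat anti-mouse antibody, double-referenced against blank flow cell and buffer cycle, fitted by a 1:1 kinetic model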
CARD domain of human ASC [8] = biological target: T2, CARD domain of human ASC; assay: BLI binning on CARD, competitor 2504F3D9-Ab1
mouse ASC [9] = biological target: T3, mouse ASC (mouse, UniProt Q9EPB4 1-193); assay: SPR affinity mode, steady-state fit, apparent KD; SPR affinity mode, mAb captured, mASC in solution; steady-state fit, apparent KD
T3 construct: recombinant mASC in ELISA and SPR; endogenous ASC of J774.A1 cells in Western blot and immunofluorescence; also called mASC
T3 sequence: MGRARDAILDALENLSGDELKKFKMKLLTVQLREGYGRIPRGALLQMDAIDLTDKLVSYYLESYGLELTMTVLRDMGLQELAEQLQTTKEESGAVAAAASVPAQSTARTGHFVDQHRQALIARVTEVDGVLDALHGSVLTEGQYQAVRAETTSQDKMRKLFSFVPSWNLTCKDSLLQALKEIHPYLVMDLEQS

CARD domain of human ASC [10] = biological target: T2, CARD domain of human ASC; assay: BLI binning on CARD, competitor 32B6C7-Ab1
[11] = biological target: T1, human ASC (apoptosis associated …); assay: cell-based or functional assay; remark: listed apart in the source
CARD domain of human ASC [12] = biological target: T2, CARD domain of human ASC; assay: BLI binning on CARD, competitor 2609F4A9-Ab1
PYD domain of human ASC [13] = biological target: T4, PYD domain of human ASC (human, UniProt Q9ULZ3 1-91, limits assumed); assay: ELISA, coated hPYD;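 further: monoclonal antibody binding to plate-coated human ASC PYD measured by ELISA, with a phosphatase substrate absorbance read-out and EC50 from a variable slope curve fit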
T4 construct: biotinylated in BLI; His/MBP-tagged in the alanine ELISA; also called hPYD; human PYD

mouse ASC [14] = biological target: T3, mouse ASC; assay: ELISA, coated mASC; ELISA on mASC protein
mouse ASC [15] = biological target: T3, mouse ASC; assay: cell-based or functional assay
mouse ASC [16] = biological target: T3, mouse ASC; assay: ELISA, coated mASC
mouse ASC [17] = biological target: T3, mouse ASC; assay: SPR affinity mode, steady-state fit, apparent KD
PYD domain of human ASC [18] = biological target: T4, PYD domain of human ASC; assay: BLI binning on PYD, competitor 416E6G4-AB1
CARD domain of human ASC [19] = biological target: T2, CARD domain of human ASC; assay: sandwich ELISA on MBP-tagged protein captured by anti-MBP antibody, signal as % of hPYD-WT
PYD domain of human ASC [20] = biological target: T4, PYD domain of human ASC; assay: BLI binning on PYD, competitor 26A1G2-AB1
PYD domain of human ASC [21] = biological target: T4, PYD domain of human ASC; assay: BLI binning on PYD, competitor 401H9B7-AB1
PYD domain of human ASC [22] = biological target: T4, PYD domain of human ASC; assay: BLI binning on PYD, competitor 31F10C5-AB1
mouse ASC [23] = biological target: T3, mouse ASC; assay: cell-based or functional assay; remark: listed apart in the source
PYD domain of human ASC [24] = biological target: T4, PYD domain of human ASC; assay: BLI binning on PYD, competitor 2617C3A8-AB1
PYD domain of human ASC [25] = biological target: T4, PYD domain of human ASC; assay: BLI binning on PYD, competitor 2610H7D3-AB1
mouse ASC [26] = biological target: T3, mouse ASC; assay: SPR affinity mode, mAb captured;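 further: Single-cycle SPR kinetics with mAbs captured on goat anti-mouse antibody, double-referenced against blank flow cell and buffer cycle, fitted by a 1:1 kinetic model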
PYD domain of human ASC [27] = biological target: T4, PYD domain of human ASC; assay: BLI binning on PYD, competitor 22D3A6-AB1
PYD domain of human ASC [28] = biological target: T4, PYD domain of human ASC; assay: BLI binning on PYD, competitor 2626B9D3-AB1
PYD domain of human ASC [29] = biological target: T4, PYD domain of human ASC; assay: BLI binning on PYD, competitor 23E5F7-AB2

T4 sequence (Q9ULZ3 1-91 limits assumed): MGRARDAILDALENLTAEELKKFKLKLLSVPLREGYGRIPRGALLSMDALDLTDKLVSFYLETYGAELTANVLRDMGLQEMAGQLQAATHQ

EC50 [1]: 0.11 nM
Human ASC polymerization assay, IC50 [2]: 14.1 nM
normalized binding response (CARD domain of human ASC [3]): 95%
normalized binding response (CARD domain of human ASC [4]): 102%
EC50 (CARD domain of human ASC [5]): 0.12 nM
normalized binding response (CARD domain of human ASC [6]): 0%
Kd [7]: 1.38 nM
koff [7]: 0.000182 s⁻¹
kon [7]: 140000 M⁻¹ s⁻¹
normalized binding response (CARD domain of human ASC [8]): -2%
Kd (mouse ASC [9]): 134 nM
normalized binding response (CARD domain of human ASC [10]): 3%
IL-1β release, human monocytic cell line, IC50 [11]: 14.9 nM
normalized binding response (CARD domain of human ASC [12]): -2%
binding result (PYD domain of human ASC [13]): no binding
EC50 (mouse ASC [14]): 0.22 nM
% IL-1β inhibition, mouse primary microglia, 420 nM mAb (mouse ASC [15]): 88.8%
B1: ACI-8016-2629E8D1-AB1 (antibody, V domains shown)
VH: QVQLQQSDAELVKPGGSVKISCKVSGYTFTDHTIHWMKQRPEQGLEWIGNIYPGDGSTMYNEKFKGKATLTADKSSSTAYMHLNSLTSEDSAVYFCARPYYFGSASYYFGYWGQGTTLTVSS
VL: DIQMNQSPSSLSASLGDTITITCHASQNINVWLNWYQQKPGNIPKLLIYKASNLHTGVPSRFSGSGSGIGFTLTISSLQPEDIATYYCQQGQSYPLTFGGGTKLEIK
notes: also called ACI-8016-2629E8D1-AB1_rmG2a_01

EC50 [1]: 0.14 nM
EC50 (mouse ASC [16]): 0.14 nM
Human ASC polymerization assay, IC50 [2]: 12.1 nM
normalized binding response (CARD domain of human ASC [3]): 97%
normalized binding response (CARD domain of human ASC [4]): 106%
EC50 (CARD domain of human ASC [5]): 0.11 nM
normalized binding response (CARD domain of human ASC [6]): -2%
Kd [7]: 1.06 nM
koff [7]: 0.000201 s⁻¹
kon [7]: 192000 M⁻¹ s⁻¹
Kd (mouse ASC [17]): 36.9 nM
normalized binding response (CARD domain of human ASC [8]): -3%
normalized binding response (CARD domain of human ASC [10]): 0%
IL-1β release, human monocytic cell line, IC50 [11]: 13.9 nM
normalized binding response (CARD domain of human ASC [12]): -3%
binding result (PYD domain of human ASC [13]): no binding
% IL-1β inhibition, mouse primary microglia, 420 nM mAb (mouse ASC [15]): 66.7%
B2: ACI-8016-32B6C7-AB1 (antibody, V domains shown)
VH: QVQLQQSDAELVKPGASVKISCKISGYTFTDQTIHWMNQRPEQGLEWIGYIYPGDGSAMYNEKFRGKATLTADKSSSTAYMQLNSLTSEDSAVYFCARPLYSYASYYWFAYWGQGTLVTVSA
VL: B1 VL with N34S, Q38R, A51S, I69T
notes: also called 936.32B6C7

EC50 [1]: 0.16 nM
EC50 (mouse ASC [16]): 0.23 nM
normalized binding response (PYD domain of human ASC [18]): 4%
binding result (CARD domain of human ASC [19]): no binding
normalized binding response (PYD domain of human ASC [20]): 2%
normalized binding response (PYD domain of human ASC [21]): 75%
normalized binding response (PYD domain of human ASC [22]): 2%
Human ASC polymerization assay, IC50 [2]: 6 nM
Mouse ASC polymerization assay, IC50 (mouse ASC [23]): 35.7 nM
normalized binding response (PYD domain of human ASC [24]): 2%
normalized binding response (PYD domain of human ASC [25]): 0%
Kd [7]: 0.15 nM
koff [7]: 0.000118 s⁻¹
kon [7]: 810000 M⁻¹ s⁻¹
Kd (mouse ASC [26]): 0.15 nM
koff (mouse ASC [26]): 0.000162 s⁻¹
kon (mouse ASC [26]): 1.09e+06 M⁻¹ s⁻¹
IL-1β release, human monocytic cell line, IC50 [11]: 20.3 nM
normalized binding response (PYD domain of human ASC [27]): 1%
normalized binding response (PYD domain of human ASC [28]): 88%
EC50 (PYD domain of human ASC [13]): 0.16 nM
% IL-1β inhibition, mouse primary microglia, 420 nM mAb (mouse ASC [15]): 94.3%
normalized binding response (PYD domain of human ASC [29]): 1%
B3: ACI-8016-2617C3A8-AB1 (antibody, V domains shown)
VH: QVQLQQSGVELARPGASVKLSCKASGSTFTSYSITWVKQRTGQGLEWIGVIYPRSDNTYYDEKFKGKATLTADKSSSTAYIELRSLTSEDSAVYFCATRDYWGQGTTLTVSS
VL: QIVLTQSPAIMSASPGEKVTITCSASSSVSYMYWFQQKPGTSPKFWIYSTSNLASGVPARFSGSGSGTSYSLTISRMEAEDAATYYCQQRSNYPFTFGSGTKLEIK

The next lines start with the binder.

B4: ACI-8016-18F4C12-AB1 (antibody, V domains shown)
VH: EVQLQQSGAELVRPGSSVKMTCKTSGYSFSSYGMSWVKQRPGQGLEWIGYIYVGNGYTEYNEKFKGKATLTSDTSSSTVYMDFRSLTSEDSAIYFCARLNRGRALDFWGQGTTLTVSS
VL: DIVLTQSPASLAVSLGQRATISCRASQSVSTSGHSYMHWYQQKPRQSPKLLIHFASNLESGVPARFTGSGSGTDFTLNIHPVEEEDAATYYCQHSWDLPYTFGGGTKLEIK
notes: also called 936.18F4C12
EC50 [1]: 0.19 nM
EC50 (mouse ASC [16]): 0.2 nM
Human ASC polymerization assay, IC50 [2]: 4.7 nM
normalized binding response (CARD domain of human ASC [3]): 0%
normalized binding response (CARD domain of human ASC [4]): -3%
EC50 (CARD domain of human ASC [5]): 0.18 nM
normalized binding response (CARD domain of human ASC [6]): 69%
Kd [7]: 0.7 nM
koff [7]: 0.000442 s⁻¹
kon [7]: 621000 M⁻¹ s⁻¹
Kd (mouse ASC [17]): 54.5 nM
normalized binding response (CARD domain of human ASC [8]): 33%
normalized binding response (CARD domain of human ASC [10]): 78%
IL-1β release, human monocytic cell line, IC50 [11]: 15.9 nM
normalized binding response (CARD domain of human ASC [12]): 68%
binding result (PYD domain of human ASC [13]): no binding
% IL-1β inhibition, mouse primary microglia, 420 nM mAb (mouse ASC [15]): 82.8%

B5: ACI-8016-26A1G2-AB1 (antibody, V domains shown)
VH: QVQLQQSGAELARPGASVKLSCKASGYNFTTYGINWVKQRTGQGLEWIGKIYPRSGNTHNNENFKGKATLTADTSSSTAYMDLRSLTSEDSAVYFCARSPYAFYSSSYWYFDVWGTGTTVTVSS
VL: DIKMTQSPSSMYASLGERVTITCKASQDIKSYLSWYQQKPWKSPKTLIYYATSLADGVPSRFSGSGSGQDYSLTISSLESDDTATYYCLQHGESPFTFGSGTKLEIK
notes: also called 936.26A1G2; ACI-8016-26A1G2-AB1_hmG2c
EC50 [1]: 0.13 nM
EC50 (mouse ASC [16]): 0.15 nM
normalized binding response (PYD domain of human ASC [18]): 14%
binding result (CARD domain of human ASC [19]): no binding
normalized binding response (PYD domain of human ASC [20]): 3%
normalized binding response (PYD domain of human ASC [21]): 63%
normalized binding response (PYD domain of human ASC [22]): 19%
Human ASC polymerization assay, IC50 [2]: 4.9 nM
Mouse ASC polymerization assay, IC50 (mouse ASC [23]): 24.8 nM
normalized binding response (PYD domain of human ASC [24]): 23%
normalized binding response (PYD domain of human ASC [25]): 22%
Kd [7]: 1.87 nM
koff [7]: 8.05e-05 s⁻¹
kon [7]: 42000 M⁻¹ s⁻¹
Kd (mouse ASC [26]): 3.81 nM
koff (mouse ASC [26]): 0.000101 s⁻¹
kon (mouse ASC [26]): 27600 M⁻¹ s⁻¹
normalized binding response (PYD domain of human ASC [27]): 23%
normalized binding response (PYD domain of human ASC [28]): 33%
EC50 (PYD domain of human ASC [13]): 0.12 nM
% IL-1β inhibition, mouse primary microglia, 420 nM mAb (mouse ASC [15]): 52.1%
normalized binding response (PYD domain of human ASC [29]): 18%
